“And” between values parts separate entries of the source, which are not always exact repeats. Equal values may be shown once.

The record followed here is paper PMC10842004.

The target of test [1] is single point mutations in RAD23A UBA1 or UBA2 (as tested with Pol κ). Put plainly: co-IP.
In test [2] the target is His Pol ι aa 1–419 (catalytic domain of Pol ι) (human). Put plainly: MST.
For test [3], the target named is single point mutations in RAD23A UBA1 or UBA2 (as tested with Rev1). Put plainly: co-IP.
The target in test [4] is FLAG-RAD23A lacking UBA1 (human) (UniProt P54725). Put plainly: co-IP.
In test [5] the target is single point mutations in RAD23A UBA1 or UBA2 (as tested with Pol ι). Put plainly: co-IP.

HA-tagged Pol κ, sequence (Q9UBT6 whole entry): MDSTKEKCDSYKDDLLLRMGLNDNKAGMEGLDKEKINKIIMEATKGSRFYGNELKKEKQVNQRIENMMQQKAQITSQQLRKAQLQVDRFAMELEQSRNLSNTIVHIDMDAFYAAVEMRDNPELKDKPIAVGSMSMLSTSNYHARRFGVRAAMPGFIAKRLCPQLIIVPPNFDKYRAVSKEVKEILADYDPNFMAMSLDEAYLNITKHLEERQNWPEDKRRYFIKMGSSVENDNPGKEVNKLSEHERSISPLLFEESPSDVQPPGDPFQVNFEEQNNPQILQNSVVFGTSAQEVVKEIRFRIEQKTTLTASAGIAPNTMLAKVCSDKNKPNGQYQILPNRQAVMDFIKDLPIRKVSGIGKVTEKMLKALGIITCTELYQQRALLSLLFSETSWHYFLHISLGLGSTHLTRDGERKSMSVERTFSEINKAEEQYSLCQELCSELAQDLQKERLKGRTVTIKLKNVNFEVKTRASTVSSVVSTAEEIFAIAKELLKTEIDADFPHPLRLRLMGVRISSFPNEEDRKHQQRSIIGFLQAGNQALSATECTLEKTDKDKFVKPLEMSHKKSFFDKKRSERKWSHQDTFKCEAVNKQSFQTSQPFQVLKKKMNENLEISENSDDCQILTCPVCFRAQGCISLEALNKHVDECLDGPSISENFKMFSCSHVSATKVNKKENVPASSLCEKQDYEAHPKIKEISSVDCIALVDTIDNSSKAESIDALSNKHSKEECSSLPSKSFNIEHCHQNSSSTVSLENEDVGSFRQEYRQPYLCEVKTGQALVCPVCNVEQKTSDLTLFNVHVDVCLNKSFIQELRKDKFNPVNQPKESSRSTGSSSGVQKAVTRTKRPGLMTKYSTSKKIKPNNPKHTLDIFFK
HA-tagged REV1, sequence (Q9UBZ9 whole entry): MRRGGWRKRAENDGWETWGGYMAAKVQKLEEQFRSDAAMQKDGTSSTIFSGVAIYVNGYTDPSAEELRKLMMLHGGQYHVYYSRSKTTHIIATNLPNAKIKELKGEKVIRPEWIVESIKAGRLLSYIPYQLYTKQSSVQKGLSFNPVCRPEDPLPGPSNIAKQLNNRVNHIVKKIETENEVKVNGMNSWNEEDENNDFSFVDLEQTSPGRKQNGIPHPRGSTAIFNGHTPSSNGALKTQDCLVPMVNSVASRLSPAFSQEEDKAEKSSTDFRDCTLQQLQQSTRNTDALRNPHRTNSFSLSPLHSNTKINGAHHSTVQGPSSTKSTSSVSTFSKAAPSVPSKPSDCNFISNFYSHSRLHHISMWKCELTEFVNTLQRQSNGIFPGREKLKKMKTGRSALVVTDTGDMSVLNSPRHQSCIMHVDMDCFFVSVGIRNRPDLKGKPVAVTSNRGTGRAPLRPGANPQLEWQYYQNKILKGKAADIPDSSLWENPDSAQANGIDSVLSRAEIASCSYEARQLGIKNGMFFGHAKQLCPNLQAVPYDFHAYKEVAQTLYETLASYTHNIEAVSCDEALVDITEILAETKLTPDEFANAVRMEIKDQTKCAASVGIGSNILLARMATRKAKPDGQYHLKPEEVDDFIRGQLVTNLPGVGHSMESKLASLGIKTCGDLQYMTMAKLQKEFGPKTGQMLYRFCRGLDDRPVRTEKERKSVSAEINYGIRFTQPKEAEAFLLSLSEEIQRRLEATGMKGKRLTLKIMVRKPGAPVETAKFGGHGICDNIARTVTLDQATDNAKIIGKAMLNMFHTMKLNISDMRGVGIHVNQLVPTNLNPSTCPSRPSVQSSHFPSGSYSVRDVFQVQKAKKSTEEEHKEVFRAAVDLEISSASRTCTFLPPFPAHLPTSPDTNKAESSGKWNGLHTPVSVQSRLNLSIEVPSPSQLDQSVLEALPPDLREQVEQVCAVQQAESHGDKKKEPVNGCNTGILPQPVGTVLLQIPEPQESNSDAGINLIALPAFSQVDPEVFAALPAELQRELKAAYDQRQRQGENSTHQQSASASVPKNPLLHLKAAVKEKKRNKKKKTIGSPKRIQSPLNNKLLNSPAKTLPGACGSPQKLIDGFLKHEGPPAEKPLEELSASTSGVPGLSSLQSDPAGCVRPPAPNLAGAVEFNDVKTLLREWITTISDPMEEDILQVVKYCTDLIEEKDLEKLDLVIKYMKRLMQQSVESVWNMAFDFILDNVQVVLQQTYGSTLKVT

With “HA-tagged Pol κ (from UniProt Q9UBT6 1-870) (enzyme)”, the percent disruption of binding against WT RAD23A in test [1] was 40% and 60%.
On to “RAD23A ΔUBL fragment (domain or fragment)”, for which the Kd in test [2] was determined as 90 µM. That is a double-digit micromolar value.
As to “HA-tagged REV1 (from UniProt Q9UBZ9 1-1251) (enzyme)”, in test [3], the percent disruption of binding against WT RAD23A lay in the range of 70 to 80%.
Take WT HA-Pol ι (enzyme): the percent reduction of binding against WT RAD23A in test [4] lay within 75 to 85%. Also, the percent disruption of binding against WT RAD23A in test [5] was 40% and 60%.

What is called Kd is the equilibrium constant for the complex coming apart. Read a low Kd as a tighter complex.
